The values below come from patent publication US20200207829.

In this data set the test system is TMt-NES-dCas9VP64.

In the case of TEVC151A, the EYFP activation score entry was “did not show any activity above baseline levels”.
